Our source for the specific lysis of RMA/B7-H6 cells by transduced mouse T cells, 5-h LDH release, E:T 1:1 and IFN-γ production by transduced human T cells after 24 h coculture with iDCs or mDCs (5:1), ELISA values is patent publication US20150110760A1.

One assay deals with B7-H6 (human) (UniProt Q68D85). The assay is described as follows: cell-based or functional assay.
The target of assay [1] is NKp30 ligands on human dendritic cells (iDCs and mDCs). The assay is described as follows: cell-based or functional assay.

Chain of UniProt Q68D85 (Q68D85 25-454): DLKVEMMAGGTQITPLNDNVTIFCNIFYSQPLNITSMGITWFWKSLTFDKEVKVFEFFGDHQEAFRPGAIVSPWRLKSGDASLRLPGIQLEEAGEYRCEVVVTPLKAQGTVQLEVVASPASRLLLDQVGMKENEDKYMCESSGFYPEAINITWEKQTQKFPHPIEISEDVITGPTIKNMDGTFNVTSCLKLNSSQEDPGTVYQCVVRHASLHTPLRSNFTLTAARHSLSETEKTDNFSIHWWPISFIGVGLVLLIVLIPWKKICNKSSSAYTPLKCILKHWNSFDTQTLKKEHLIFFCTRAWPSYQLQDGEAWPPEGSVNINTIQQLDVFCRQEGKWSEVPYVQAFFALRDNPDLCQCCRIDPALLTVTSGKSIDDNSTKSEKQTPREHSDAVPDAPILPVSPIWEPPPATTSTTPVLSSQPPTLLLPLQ

On to NKp30-CD3ζ chimeric receptor, for which the specific lysis of RMA/B7-H6 cells by transduced mouse T cells, 5-h LDH release, E:T 1:1 with B7-H6 (human) stood at 80%. In the assay with B7-H6 (human), NKp30-CD28-CD3ζ chimeric receptor had a specific lysis of RMA/B7-H6 cells by transduced mouse T cells, 5-h LDH release, E:T 1:1 of 80%. The substance also displayed an IFN-γ production by transduced human T cells after 24 h coculture with iDCs or mDCs (5:1), ELISA in assay [1] of 200 to 800 pg/mL.
